Laboratory results taken from patent US20030176674A1 (Human Genome Sciences, published 2003).

T1: secreted form of VEGF-2 polypeptide (human vascular endothelial growth factor 2) (human, UniProt P49767 112-227, limits assumed)
T1 construct: also called secreted VEGF-2 protein
T1 sequence: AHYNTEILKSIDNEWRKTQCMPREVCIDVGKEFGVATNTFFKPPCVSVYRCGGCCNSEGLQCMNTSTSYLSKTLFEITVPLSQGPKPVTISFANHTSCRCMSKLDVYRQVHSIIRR


Biological target: T1, secreted form of VEGF-2 polypeptide …
Test: BIAcore (SPR), CM5 chip; antibody captured by goat anti-human Fc; secreted VEGF-2 injected at 2.9-95.2 nM; double reference subtraction
Experimental: A high-density CM5 BIAcore sensor chip was prepared using 10 ug/mL of purified goat anti-human fc antibody as the capture reagent. The optimal pH for immobilization was pH 4 (10 mM sodium acetate). An EDC/NHS complex was applied first to activate the carboxyl groups on the sensor matrix. After the VEGF-2 antibodies were immobilized, the esters were inactivated with ethanolamine. Both a control and an experimental flow cell were used.
The kinetics cycle was performed with the following procedures. The flow rate for the entire binding cycle was 25 uL/minute. The purified VEGF-2 antibody, at 5 ug/mL, was injected only in the experimental flow cell for 1 minute. The secreted form of VEGF-2 was then injected into control and experimental flow cells. The concentration the secreted form of VEGF-2 polypeptide varied for each cycle. The secreted form of VEGF-2 polypeptide (calculated as a 21 kDa dimer) was diluted in HBS-EP from 2 ug/mL (95.2 nM) to-0.06 ug/mL (2.9 nM). Both association and dissociation was 7 minutes. Regeneration was performed using 8 uL of 25 mM HCl for all flow cells.
Evaluation was performed using the double reference subtraction, which subtracts the control flow cell from the experimental and also subtracts a buffer injection.

Kd [nM] | koff [s⁻¹] | kon [M⁻¹ s⁻¹] | Binder
0.321 | 9.49e-05 | 295000 | antibody 1.2.3 (antibody expressed by hybridoma cell line 1.2.3, ATCC Deposit Number PTA-3342) (antibody, human IgG2, V domains shown, Purified hybridoma antibody from XenoMouse; also called Hybridoma 1.2.3) VH: QVQLVESGGGVVQPGRSLRLSCAASGFTFSRYGMHWVRQAPGKGLEWVALIWYDGSNKYYADSVKGRFTISRDNSKNTLYLQMNSLRAEDTAVYYCARDGFGSGCFDYWGQGTLVTVSS VL: DIVMTQTPLSLSVTPGQPASISCKSSQSLLHSDGKTYLYWHLQKPGQPPQLLIYEVSHRFSGVPDRFSGSGSGTDFTLKISRVEAEDVGLYYCVQSIQLPLTFGGGTKVEIKR
1.79 | 0.000657 | 367000 | antibody 1.5.1 (antibody expressed by hybridoma cell line 1.5.1, ATCC Deposit Number PTA-3341) (antibody, V domains shown, Purified hybridoma antibody from XenoMouse; VAX1510 is the IgG1 conversion of 1.5.1; also called Hybridoma 1.5.1) VH: QVQLVESGGGVVQPGRSLRLSCAASGFTFSRYGMHWVRQAPGKGLEWVAIIWYDGSDKYYADSVKGRFTISRDNSKNTLYLQMSSLRAEDTAVYYCARGTVGASFDYWGQGTLVTVSS VL: DIVMTQTPLSLSVTPGQPASISCKSSQSLLNSDGKTYLYWYLQKPGQPPQLLINEVSNRFSGVPDRFSGSGSGTDFTLKISRVEAEDVGVYYCLQSIQLPLTFGGGTKVEIKR
